Measurements from publication doi:10.1101/2023.08.24.554544 (2023).

T1: aster yellows witches'-broom phytoplasma SAP05 (AYWB_SAP05), mature, 33-135 (Aster Yellows phytoplasma strain …, UniProt Q2NK94 33-135)
T1 chain: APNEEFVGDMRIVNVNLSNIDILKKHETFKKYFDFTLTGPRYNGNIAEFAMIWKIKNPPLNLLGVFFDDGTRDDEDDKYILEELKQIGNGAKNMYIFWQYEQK


Key:
[1] = biological target: T1, aster yellows witches'-broom …; experiment: SPR
[2] = biological target: V-shape-GSGS-C-ter peptide (fused V-shape and C-ter peptide of SAP05, linked by the GSGS linker) (UniProt Q2NK94); experiment: SPR

Binder	Kd [1] [µM]	koff [2] [s⁻¹]
GST-tagged homo sapiens Rpn10 (hRpn10) vWA (1-193aa) (domain or fragment) MVLESTMVCVDNSEYMRNGDFLPTRLQAQQDAVNIVCHSKTRSNPENNVGLITLANDCEVLTTLTPDTGRILSKLHTVQPKGKITFCTGIRVAHLALKHRQGKNHKMRIIAFVGSPVEDNEKDLVKLAKRLKKEKVNVDIINFGEEEVNTEKLTAFVNTLNGKDGTGSHLVTVPPGPSLADALISSPILAGEG	~149	–
GST-tagged A. thaliana Rpn10 (AtRpn10) vWA domain (domain or fragment) VLEATMICIDNSEWMRNGDYSPSRLQAQTEAVNLLCGAKTQSNPENTVGILTMAGKGVRVLTTPTSDLGKILACMHGLDVGGEINLTAAIQIAQLALKHRQNKNQRQRIIVFAGSPIKYEKKALEIVGKRLKKNSVSLDIVNFGEDDDEEKPQKLEALLTAVNNNDGSHIVHVPSGANALSDVLLSTPVFTG	–	0.0115
